Measured values taken from the RNAGym collection of RNA variant scans (doi:10.1073/pnas.2313332121).
Variants at the floor of the assay were thinned out.

B1: TPR 5TU (parent)
chain: GGAUCUUCUCGAUCUAACAAAAAAGACAAAUCUGCCACAAAGCUUGAGAGCAUCUUCGGAUGCAGAGGCGGCAGCCUUCGGUGGCGCGAUAGCGCCAACGUUCUCAACUAUGACACGCAAAACGCGUGCUCCGUUGAAUGGAGUUUAUCAUG

Variants of: B1
Experiment: polymerase ribozyme fitness, log enrichment relative to wild type (log ratio); higher = more active; in vitro selection for triplet polymerase activity
Outline: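 One round of in vitro selection, in triplicate, was applied to PCR-built, transcribed mutant libraries of each subunit of a heterodimeric triplet polymerase ribozyme. The steps were annealing with a biotinylated primer, partner subunit and triplets, incubation frozen at −7 °C, gel excision of extended constructs, streptavidin-bead capture and RT-PCR. Fitness is the logarithm, base 2, of genotype enrichment over wild-type enrichment from inverse-variance-weighted replicate averages of Illumina-sequenced inputs and outputs, keeping genotypes with ≥10 input reads and ≥1 read per output.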

| Variant | polymerase ribozyme fitness (log ratio) |
| --- | --- |
| GGAUCUGCUCGCUCUAACAAAAAAGACAAAUCUGCCACAAAGCUUGAGAGGAUCUUCGGAUGCCGAGGCGGCAGCCUUCGGUGGCGCGAUAGCGCCAACGUUCUCAACUAUGACACGCAAAAUGCGUGCUCGGUUGAAUGGAGUUUAUCAUG | ≤ -4.2 |
| GGAUCUUCUCGAUCUAACAAAAAAGACAAAUCUGCCACAAAGCUUGAGAGCAACUUCGGAUGCAGAGGCGCCAGCCUUCGGUGGCGCAAUAGCGCCAACGUUCUCAACUAUGACACGCAAAACGCGUGCUCCGUUGAAUGGAGUUUAUCAUG | ≤ -4.2 |
| GGAUCUUCUCGAUCUAACAAAAAAGACUAAUCUGCCACAAAGCUUGAGAGCAUCUUCGGAUGCAGAGGCGGCAGCCUUCGGUGGCGCAAUAGCGCCAACGUUCUCAGCUAUGACACGCAAAACGCGUGCUCCGUUGAAUGGCGUUUAUCAAG | ≤ -4.2 |
| GGAUCUUCUCGAUCUAACAAAAAAGAAGAAUCUGCCACAAAGAUUGAGAGCAUCUUCCGAUGCAGAGGCGGCAGCCUUCGGUGGCGCGAUAGCGUCAACGUUCUGAACUAUGACACGCAAAACGCGUGCUCCGUUGAAUGGAGUUUAUCAUG | ≤ -4.2 |
| GGAUCUUCUCGAUCUGACAAAAAAGACAAAUCUUCCACAAAGCUUGAGAGCUUCUUCGGGUGCAGAGGCGGGAGCCUUCGGUGGCGCUAUUGCGCCAACGUUCUCAACUAUGACACGCAAAACGCGUGCUCCGUUGAAUCGAGUUUAUCAUG | ≤ -4.2 |
| GGAUCUUCUCGAUCUAACAAAAAAGACAAAUCUGCCACAAAGCUUGAGAGCAUCUUCGGAUGCAGAGCCGGCAGCCUUCGGUUGCGCGAUAACGCCAACGUACUCAACUAUGACACGCAAAACGCGUGCUCCGUUGGAUGGGGUUUAUCAUG | ≤ -4.2 |
| GGAUCUUCUCGAUCUAACAAAAAAGACAAAUCUGCCACAAAGCUUGAGAGCAUCUUCGGAUGCAGAGGCGGUAGCCUUCGGUGGCGCGAUUGCGCCAACGUUCUCCACUAUGACGCGCUAAACGCGUGCUCCGUUGAAUGGAAUGUAUCAGG | ≤ -4.2 |
| GGAUCUUAUCGAUCUAACAAAAAAGACAAAUCUGCCACAAAGCUUGAGAGCAUCUUCGGAUGCAGAGGCGGCAGCCUUCGGUGGCACGAUAGCGCCAACGUUCUCAACUAUGACACGCAAAACGCGUGCUCCGUUGAAUGGAGUUUAUCAUG | -3.76 |
| GGAUCUUCCCGAUCUACCAAAAAAGACAAAUCUGCCACAAAGCUUGAGAGCAUUUUCGGAUGCAGAGGCGGCAGCCUUCGGUGGCGCGAUAGCGCCAACGUUCUCAACUAUGACACGCAGAACGCGUGCUCCGUUGAAUGGAGUUUAUCAUG | ≤ -4.2 |
| GGAUCUUCUCGAUCUAACAAAAAAGACAAAUCUGCCACAAACCUUGAGAGCAUCUUCGGAUGCAGCGGCGGCAGCCUUCGGUGGCGCGAUAGCGCCAACGUUCUCAACUAUGACACGCAAAACGCGUGCUCCGUUGAAUGGAGUUUAUCAUG | ≤ -4.2 |
| GGAUAUUCUCGAUCUAACAAAAAAGACAAAUCUGCCACAAAGCUUGAGAGCAUCUUCGGAUGCAGAGGCGGCAGCCUUCGGUGGCGCGAUAGGGCCAACGUUCUCAACUAUGACACGCAAAACGCGUGCUCCGUUGAAUGGAGUUUAUCAUG | -2.32 |
| GGAUCUUCUCGAUCUAACAAAAAAGACAAAUCUGCCACAAAGCUUGAGAGCAUCUUCGGAAGCAGAGGCGGCAGCCUUCGGUGGAGCGAUAGCGCAAACGUUCUCAACUAUGACACGCAAGACGCGUGCUCCGUUGAAUGGAGUUUAUCAUG | ≤ -4.2 |
| GGAUCUUCUCGAUCUACCAAAAAAGACAAAUCUGCCACAAAGCUUGAGAGCAUCUUCGGUUGCAGAGGCGGCAGCCUUCGUUUGCUCGAUAGAGCCAACGUUCUCAACUAUGACACGCAAAACGCGUGCUCCGUUGAAUGGAGUUUAUCAUG | -0.433 |
| GGAUCUUCUCGAUCUAACAAAAAAGACAAAUCUGCCACAAAGCUUGAGAGCAUAUUCGGAUGCAGAGGCGGCAGCCUUCGGUGGCGCGAUAGCGCCAACGUUCUCAACUAUGACAGGCAAAACGCGUGCUCCGUUGAAUGGAGUUUAUCAUG | -0.685 |
| GGAUCUUCUCGAUCUAACAAAAAAGACAAAUCUGCCAUAAAGCUUGAGAGCAUCUUCGGAUGCAGAGGCGGCAGCCUUCGGUGGCGCGAUAGCGCCAACGGUCUCAACUAUGACACGCAAAACGCGUGCUCCGUAGAAUGGAGUUUAUCAUG | -0.00114 |
| GGAUCUUCUCGUUCUAACAAAAACGACAAAUCUGCCACAAAGCUUAAGAGCGUCUUCGGAUGCAGAGGCGGCAGCCUUCGGUGGCGCGAUAGCGCCAACGUUCUCAACUAUGACACGCAAAACGCGUGCUCCGUUGAAUGUAGUUUGUCAUG | ≤ -4.2 |
| GGAUCUUCUCGAUCUAACAAAAAAGACAAAUCUGCCACAAAGCUUGUGAGCAUCUUCGGAAGCAGAGGCGGCAGCCUUCGGUGGCGCGAUAGCGCCAACGUUCUCAACUAUGACACGCAAAACGCGUGCUCCGUUGAAUGGAGUUUAUCAUG | -1.41 |
| GGAUCUUCCCGAUCUAACAAAAAAGACAAAUCUGCCACAAAGGUUGAGAGCAUCUUCGGAUGCAAACGCGGCAGCCUUCGGUGGCGCGAUAGCGACAACGUUCUCAACUAUGACACGCAAAACGCGUGCUCCGUUGAAUGGAGUUUAUCAUG | -4.09 |
| GGAUCUUCUCGAUCUAACAAAAAAGUCAAAUCUGCCACAAAGCUUGAGAGCAUCUUCGGAUGCAGAGGCGGCAGCCUUCGGUGGCGCGAUAGCGCCAACGUUCUCAACUAUGACACGCAAAACGCGUGCUCCGUUGAAUGGAGUUUAUCACG | ≤ -4.2 |
